Our source for the Kd, stoichiometry N and EC50 values is publication PMC3071809, “Recombinant Complement Receptor 2 Radiolabeled with [^99mTc(CO)3]^+ : A Potential New Radiopharmaceutical for Imaging Activated Complement” (PLoS ONE, 2011).

In assay [1] the target is C3d construct with a free exposed thiol (Cys17, corresponding to Cys1010 of full length C3) (human). Put plainly: SPR; Biacore T100, 25°C; C3d immobilised on a CM5 chip by thiol coupling of the free Cys17; rCR2 as analyte; 0.01 M HEPES pH 7.4, 0.15 M NaCl, 3 mM EDTA, 0.005% Tween 20; equilibrium analysis, Langmuir isotherm.
Assay [2] concerns the target T1, human C3d protein (Merck) (human, UniProt P01024 1002-1303).
T1 construct: C3d fragment of complement C3, human; also called C3d antigen; immobilized C3d; source: bought: Merck, Darmstadt, Germany
The assay can be described thus: ELISA; C3d coated at two fold concentrations from 1.5 to 1500 nM/well in PBS pH 7.4; rCR2 or C2A at a fixed 1.5 µM in 0.05% BSA-PBS pH 7.4, 1 h, room temperature; detected with anti-His antibody. As to conditions: both partners purified.

Assay [3] addresses T1, human C3d protein (Merck). Put plainly: radioligand binding; radioactive ELISA: C3d coated on 12 well strips at increasing two fold concentrations, ^99mTc-rCR2 added, wells gamma counted; one site specific binding model Y = Bmax*X/(Kd+X). As to conditions: both partners purified.

T1 sequence (P01024 1002-1303): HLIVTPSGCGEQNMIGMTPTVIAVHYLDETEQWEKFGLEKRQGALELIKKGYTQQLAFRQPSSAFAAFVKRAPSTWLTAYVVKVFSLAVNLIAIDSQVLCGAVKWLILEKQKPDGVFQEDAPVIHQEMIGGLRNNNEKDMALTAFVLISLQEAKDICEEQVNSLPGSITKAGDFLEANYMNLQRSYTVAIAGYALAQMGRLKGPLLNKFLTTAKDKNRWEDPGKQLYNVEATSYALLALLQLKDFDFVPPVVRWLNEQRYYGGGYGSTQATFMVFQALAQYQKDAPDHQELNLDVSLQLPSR

B1: recombinant Complement Receptor 2 (rCR2), Short Consensus Repeats 1 and 2 of human CR2 with the C-terminal sequence … (domain or fragment, UniProt P20023 21-154, looked up)
chain: ISCGSPPPILNGRISYYSTPIAVGTVIRYSCSGTFRLIGEKSLLCITKDKVDGTWDKPAPKCEYFNKYSSCPEPIVPGGYKIRGSTPYRHGDSVTFACKTNFSMNGNKSVWCQANNMWGPTRLPTCVSVFPLEC
notes: complement receptor type 2 (CR2, CD21), human, residues 21-154: SCR1, SCR2 and the SCR2 to SCR3 linker VFPLEC; 15.5 kDa; cloned in pET-24a (NdeI/EcoRI); also called recombinant CR2; SCR1/2 fragment; not shown: His6, C-terminal, kept
In assay [1], B1 gave a Kd of 570 nM and a stoichiometry N of 1. Further, the EC50 in assay [2] is roughly 48.5 nM.

B2: ^99mTc-rCR2 (rCR2 radiolabeled with [^99mTc(CO)3]^+ on the His-tag) (domain or fragment, human, UniProt P20023 21-154, looked up)
chain: B1 chain
modifications: [^99mTc(CO)3]^+ on the C-terminal His-tag
notes: complement receptor type 2 (CR2), human, residues 21-154, as m1; m1 with the radiolabel; also called rCR2-Tc^99m; rCR2-[^99mTc(CO)3]; source: labeled with [^99mTc(CO)3(OH2)3]^+ at 37°C; not shown: His6, C-terminal, kept
B2: the Kd in assay [3] stood at 25.5 nM.
